Biological target: T1, human CD39 expressed at the cell surface (human, UniProt P49961 1-510)
T1 construct: On CHO transfectants, Hek-293T transfectants, Ramos and Mino tumor cells; also called huCD39; CHO-huCD39
T1 sequence: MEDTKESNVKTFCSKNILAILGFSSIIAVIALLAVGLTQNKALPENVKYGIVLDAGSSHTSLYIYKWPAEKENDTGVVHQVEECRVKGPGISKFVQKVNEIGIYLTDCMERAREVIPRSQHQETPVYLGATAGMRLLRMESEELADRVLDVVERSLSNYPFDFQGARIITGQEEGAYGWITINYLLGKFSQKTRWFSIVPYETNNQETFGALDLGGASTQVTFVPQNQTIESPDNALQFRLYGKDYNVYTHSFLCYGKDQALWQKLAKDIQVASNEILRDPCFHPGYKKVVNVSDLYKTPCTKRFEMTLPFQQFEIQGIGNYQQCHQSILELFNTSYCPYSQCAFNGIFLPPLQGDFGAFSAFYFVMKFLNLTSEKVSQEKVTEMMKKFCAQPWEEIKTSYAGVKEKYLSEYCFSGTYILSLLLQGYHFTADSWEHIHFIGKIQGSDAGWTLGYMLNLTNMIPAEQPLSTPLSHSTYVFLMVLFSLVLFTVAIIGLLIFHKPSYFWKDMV
Experiment: flow cytometry titration on Ramos lymphoma cells (Mean of Fluorescence), panels L0, L1 and L1*

- EC50 (read off the curve): ~0.5 µg/mL
B1: I-394 (antibody, human IgG1, V domains shown)
VH: EVQLQQSGPELVKPGASVKMSCKASGYTFTDYNMHWVKQSHGRTLEWIGYIVPLNGGSTFNQKFKGRATLTVNTSSRTAYMELRSLTSEDSAAYYCARGGTRFAYWGQGTLVTVSA
VL: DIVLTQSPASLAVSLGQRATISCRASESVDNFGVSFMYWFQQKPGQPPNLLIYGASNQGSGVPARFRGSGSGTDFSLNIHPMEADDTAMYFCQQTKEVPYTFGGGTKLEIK

From patent US20230025732A1 (INNATE PHARMA, published 2023)
